Source: PMC11655906
Values joined by “and” are separate entries in the source; they are usually repeats but may differ in a detail not shown here. Identical values can stand only once.

Target: mouse Flower isoform 4 with C-terminal mTFP (mFwe4-mTFP) (mouse)
Test: native gel or EMSA; native PAGE (4-16% Bis-Tris, G-250 additive) of lysates of transfected Fwe KO mouse CTLs (modified RIPA: 50 mM Tris pH 7.5, 50 mM NaCl, 1% Triton-X-100, 1 mM EDTA), western blot with anti-DsRed recognising mTFP; oligomeric state read from band size

Chain of mouse Flower isoform 4 with C-terminal mTFP (mFwe4-mTFP) (natural protein) (Q8BG21 whole entry, canonical isoform): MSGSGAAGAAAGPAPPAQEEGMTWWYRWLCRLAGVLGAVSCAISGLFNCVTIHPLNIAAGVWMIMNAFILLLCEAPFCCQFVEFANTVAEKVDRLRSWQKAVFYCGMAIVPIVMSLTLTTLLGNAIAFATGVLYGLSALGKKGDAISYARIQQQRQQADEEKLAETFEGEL

mouse Flower isoform 4 with C-terminal mTFP (mFwe4-mTFP) (natural protein)
stoichiometry N: 4 and 6
